Laboratory results as given in patent publication US8309791.

What was measured:
Test in all cases: cell_activity
[1] = test system: Passport (PP, PPTN) transposase PTs1; conditions: colony formation in PEGE cells
[2] = test system: Sleeping Beauty transposase SB11 (synthetic (reconstructed fish Tc1-like)?); conditions: colony formation in PEGE cells
Tol2 transposase = conditions: colony formation in PEGE cells
piggyBac transposase = conditions: colony formation in PEGE cells; TTAA target
[3] = test system: tTR-KRAB (Escherichia coli / Homo sapiens fusion?); conditions: tet-on version, shCFTR1 expression with vs without doxycycline in pig fibroblasts
[4] = test system: rtTR-KRAB2S-M2 (Escherichia coli / Homo sapiens fusion?); conditions: tet-off version, shCFTR1 expression with vs without doxycycline in pig fibroblasts

PP transposon inverted repeats (pPTnP-PTK)
activity (fold over no transposase) [1]: 5

SB transposon inverted terminal repeats (pT2-FloxP-PTK, pKT2P-PTK)
activity (fold over no transposase) [2]: 13.5

mini Tol2 transposon inverted repeats (pGTol2P-PTK)
activity (fold over no transposase) (Tol2 transposase): 21

piggyBac LTR1/LTR2 (pPBTP-PTK)
activity (fold over no transposase) (piggyBac transposase): 28

tet operator (TRE)
activity [3]: 64 fold change | activity [4]: 67 fold change
